Data as given in publication PMC9816786.

Target: Human PCSK9 (full length), 6xHis-tagged, purified (human) (UniProt Q8NBP7)
Assay: BLI; biotinylated PCSK9 or biotinylated CHRD immobilised (0.2 μg/ml), CAP1 in solution, pH 7.5, association and dissociation 600 s

Human CAP1 (cyclase associated protein 1), 6xHis-tagged, purified, sequence (Q01518 whole entry): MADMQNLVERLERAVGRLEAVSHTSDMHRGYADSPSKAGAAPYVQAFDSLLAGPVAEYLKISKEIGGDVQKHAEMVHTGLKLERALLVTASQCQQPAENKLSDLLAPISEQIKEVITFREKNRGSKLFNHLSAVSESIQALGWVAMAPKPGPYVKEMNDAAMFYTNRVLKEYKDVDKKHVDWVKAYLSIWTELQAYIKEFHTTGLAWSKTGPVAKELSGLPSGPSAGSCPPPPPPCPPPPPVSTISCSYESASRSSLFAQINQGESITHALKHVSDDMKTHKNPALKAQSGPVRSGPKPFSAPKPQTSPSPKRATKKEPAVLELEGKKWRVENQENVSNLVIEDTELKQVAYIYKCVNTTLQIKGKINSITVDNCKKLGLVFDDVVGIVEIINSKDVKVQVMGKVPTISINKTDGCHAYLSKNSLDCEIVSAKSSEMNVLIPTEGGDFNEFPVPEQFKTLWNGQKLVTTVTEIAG

- Kd: 1.36 µM
- koff: 0.00094 s⁻¹
- kon: 690 M⁻¹ s⁻¹
Substance: Human CAP1 (cyclase associated protein 1), 6xHis-tagged, purified (from UniProt Q01518 1-475) (natural protein)
